Results from the supplement of paper PMC10126150.
± gives the standard deviation of the averaged measurements.

System: ATP
Test: switch fluorescence ratio, 500 uM ATP over buffer (Cy3 cluster intensity, sum of 5 cycles each) (fold (ratio)); higher = stronger signal-on switching upon ATP binding; sequences stand for … in TCGTCGGCAGCGTCAGATGTGTATAAGAGACAGTTTTTTTTTTTTTTTTTTTTTTTTT…TC
Conditions: aptamer strand: ATP DNA aptamer (quencher-CACCTGGGGGAGTATTGCGGAGGAAGG + anchor), 100 nM annealed; ATP concentration: 500 uM
In short: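 Clusters carrying Cy3-labelled switching strands on a modified Illumina MiSeq flow-cell were annealed to 100 nM quencher-labelled ATP aptamer and imaged in selection buffer. They were imaged again after 15 min with 500 uM ATP at 22 °C, over five buffer/ATP cycles with NaOH stripping and re-annealing in between. For each cluster, the fluorescence ratio is the summed Cy3 intensity of the target cycles divided by that of the buffer cycles, averaged per switch-domain sequence. Clusters outside 100-1000 RFU were left out.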
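Also: ATP exposure 15 min at 22 °C before imaging.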

Sequence	switch fluorescence ratio
AAAGGCCGT	1.016 ± 0.0077
AAAGGCCTTA	1.01 ± 0.045
AAAGGCGTAA	0.997 ± 0.013
AAAGGGAGGT	1.03 ± 0.041
AAAGGGCTGC	1.02 ± 0.13
AAAGGGGACA	1.02 ± 0.054
AAAGGGGCGG	1.02 ± 0.022
AAAGGGGGAC	1.04 ± 0.089
AAAGGGGGC	0.974 ± 0.067
AAAGGGGGCG	0.99 ± 0.017
AAAGGGGGTA	0.986 ± 0.015
AAAGGGGTGA	0.9698 ± 0.0057
AAAGGGTTCG	1 ± 0.034
AAAGGGTTTC	1 ± 0.038
AAAGGTAAGG	0.965 ± 0.016
AAAGGTCTGA	0.98 ± 0.0099
AAAGGTTCTG	0.992 ± 0.072
AAAGTAAAGT	1.01 ± 0.028
AAAGTACGGT	1.21 ± 0.024
AAAGTAGGAG	0.98 ± 0.048
AAAGTAGTTA	0.991 ± 0.015
AAAGTATCAG	1.002 ± 0.0081
AAAGTCTAC	1 ± 0.017

Sequence	switch fluorescence ratio
AAAGTGATTG	0.9723 ± 0.0028
AAAGTGGGAG	0.971 ± 0.012
AAAGTGGGG	0.973 ± 0.016
AAAGTGGGGA	1.03 ± 0.038
AAAGTTAATG	1.009 ± 0.0074
AAAGTTACTG	1.03 ± 0.077
AAAGTTCCTA	0.968 ± 0.033
AAAGTTGGCT	1.02 ± 0.046
AAAGTTTCCG	1 ± 0.0018
AAATAATTGC	1.01 ± 0.038
AAATACACGA	1.06 ± 0.029
AAATACGAGA	1.06 ± 0.024
AAATACGTTT	1 ± 0.016
AAATAGCTTT	0.9909 ± 0.0026
AAATAGTGGG	0.986 ± 0.026
AAATATAAGC	1.03 ± 0.044
AAATATATCT	0.987 ± 0.012
AAATATGTGG	0.989 ± 0.02
AAATATTTAT	0.971 ± 0.018
AAATCAATGT	1.02 ± 0.035
AAATCCCTAC	1.06 ± 0.028
AAATCGGGAA	1.34 ± 0.44
AAATCGGTGT	1 ± 0.037

Sequence	switch fluorescence ratio
AAATCGTGCA	1 ± 0.03
AAATCTGAAG	0.9798 ± 0.0027
AAATGAAGGT	1.01 ± 0.013
AAATGACGTT	0.9688 ± 0.0078
AAATGAGCGG	0.9824 ± 0.0046
AAATGAGTGG	0.9783 ± 0.006
AAATGCTATG	1.01 ± 0.031
AAATGCTCGG	0.993 ± 0.03
AAATGGAATG	0.983 ± 0.046
AAATGGATCA	1.024 ± 0.0029
AAATGGCACG	0.973 ± 0.024
AAATGGCATT	1 ± 0.033
AAATGGGGGG	0.974 ± 0.017
AAATGGTTTT	1 ± 0.024
AAATGTCTTG	0.955 ± 0.043
AAATGTGACG	1.03 ± 0.028
AAATGTTGAG	0.975 ± 0.045
AAATGTTTCA	0.996 ± 0.022
AAATGTTTGG	1.01 ± 0.017
AAATGTTTTC	0.979 ± 0.015
AAATTACGGG	1.045 ± 0.0046
AAATTATAGG	1.01 ± 0.032
AAATTATTT	1.02 ± 0.051

Sequence	switch fluorescence ratio
AAATTCATAG	1.019 ± 0.0033
AAATTCATGG	0.9809 ± 0.0021
AAATTCATGT	0.996 ± 0.028
AAATTCGAAT	1.02 ± 0.041
AAATTCGGGC	0.973 ± 0.014
AAATTCTGGG	0.996 ± 0.0075
AAATTGAGGA	1.017 ± 0.0096
AAATTGATAT	1.02 ± 0.025
AAATTGCGGC	0.975 ± 0.012
AAATTGGACG	1.08 ± 0.04
AAATTGGGAA	1.01 ± 0.035
AAATTGTCGT	0.977 ± 0.042
AAATTTACCT	1.42 ± 0.072
AAATTTATTA	1.03 ± 0.037
AAATTTATTT	0.9932 ± 0.0038
AAATTTGAAG	1.02 ± 0.012
AAATTTGGGT	1.01 ± 0.013
AAATTTGTGT	0.999 ± 0.051
AAATTTGTTG	0.992 ± 0.011
AAATTTTAAT	0.979 ± 0.04
AAATTTTGGG	1 ± 0.019
AACAGACCTT	1.13 ± 0.12
AACAGCAATT	1.27 ± 0.35

Sequence	switch fluorescence ratio
AACAGGGGAG	1.03 ± 0.03
AACAGGGGGC	1.04 ± 0.023
AACAGGGTCT	0.991 ± 0.038
AACAGTGAAA	1.02 ± 0.02
AACAGTTTTT	0.989 ± 0.044
AACATATCGG	1.02 ± 0.029
AACATCGTTT	1.02 ± 0.019
AACATGGGGA	0.976 ± 0.025
AACATTATTT	1.022 ± 0.0014
AACATTGGGG	1.02 ± 0.024
AACCAATAGC	1.1 ± 0.035
AACCAGAAAT	0.992 ± 0.01
AACCAGGACT	1.02 ± 0.013
AACCAGTGCG	1.08 ± 0.032
AACCCAACGA	1.27 ± 0.025
AACCCATGCT	1.05 ± 0.064
AACCCCCGTT	1.07 ± 0.09
AACCCTTTGC	1.04 ± 0.016
AACCGCGATG	2.25 ± 0.1
AACCTATGGT	0.978 ± 0.0042
AACCTCCGTT	1.71 ± 0.064
AACCTGTCGC	1.3964 ± 0.0013
AACCTTAGGA	1.05 ± 0.017

Sequence	switch fluorescence ratio
AACCTTATTT	0.9965 ± 0.0022
AACCTTGACG	1.07 ± 0.047
AACCTTGGGG	1.11 ± 0.079
AACGAATTAG	1.04 ± 0.038
AACGACAATT	1.118 ± 0.0016
AACGACTTGT	1.01 ± 0.037
AACGAGAAGC	0.9895 ± 0.004
AACGCATGTG	1 ± 0.039
AACGCCTTCG	1.177 ± 0.011
AACGCGAACG	1.06 ± 0.016
AACGCGAGTA	0.986 ± 0.03
AACGCGTGGG	1.01 ± 0.003
AACGCTGGCG	0.966 ± 0.028
AACGGACGCT	1.16 ± 0.064
AACGGACGGG	1.27 ± 0.095
AACGGAGAGC	1.034 ± 0.01
AACGGAGTGC	1 ± 0.045
AACGGCAGGG	1 ± 0.024
AACGGCTCTC	0.988 ± 0.043
AACGGGATTA	0.987 ± 0.047
AACGGGCTTT	0.969 ± 0.013
AACGGGGTCT	0.978 ± 0.011
AACGGGTATG	1.011 ± 0.004

Sequence	switch fluorescence ratio
AACGGTCACA	1.16 ± 0.021
AACGGTCAGA	1.02 ± 0.05
AACGGTGGGG	0.992 ± 0.034
AACGGTTGCG	0.965 ± 0.016
AACGGTTTAA	1.05 ± 0.014
AACGTACTTG	1.54 ± 0.044
AACGTAGCGG	1.07 ± 0.03
AACGTAGGGA	1.93 ± 1.2
AACGTAGTCG	1.031 ± 0.0046
AACGTCTCGA	1.01 ± 0.025
AACGTGAGTG	1.02 ± 0.011
AACGTGCCTG	0.979 ± 0.077
AACGTGCGTG	0.9973 ± 0.0028
AACGTGTGGG	0.996 ± 0.1
AACGTTAGGA	1.03 ± 0.051
AACGTTATAA	1.05 ± 0.02
AACGTTCATG	1.02 ± 0.044
AACGTTTAGG	1.015 ± 0.0099
AACGTTTTCT	0.991 ± 0.012
